According to the supplement of paper PMC10899765:

Experiments:
Settings in all cases: 20 nM; 72 h
MCF10A [1] = assay: 5+ nucleoli phenotype percent effect (relative to siNT 0% and siKIF11 100%); higher = more cells with five or more nucleoli
Procedure: (§1)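 After 72 h, cells were fixed and stained with Hoechst and anti-fibrillarin, and nucleoli per nucleus were counted with CellProfiler. Values are plate-adjusted percent effect for the one-nucleolus and 5+ nucleoli phenotypes, normalised to siNT (0%) and to the positive controls siNOL11 or siKIF11 (100%), as the mean of biological triplicates. Percent viability is the nuclei count relative to siNT.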

MCF10A [2] = assay: percent viability (nuclei count relative to siNT); higher = more viable cells
Procedure: as §1

MCF10A [3] = assay: one-nucleolus phenotype percent effect (relative to siNT 0% and siNOL11 100%); higher = more cells with one nucleolus (ribosome biogenesis inhibition)
Procedure: as §1

| Sequence | 5+ nucleoli phenotype percent effect (MCF10A [1]) | percent viability (MCF10A [2]) | one-nucleolus phenotype percent effect (MCF10A [3]) |
| --- | --- | --- | --- |
| AUUGUCCUUGCUGUUUGGAGAU [hsa-miR-2355-3p] | -3.53% | 55.4% | -8.98% |
| AUUGUUCUGUCUUUCUCCCAG [hsa-miR-6739-3p] | -25.7% | 27.3% | 7.82% |
| AUUUCCCUGCCAUUCCCUUGGC [hsa-miR-4446-5p] | -36% | 18.4% | 28.2% |
| AUUUGUGCUUGGCUCUGUCAC [hsa-miR-2113] | 9.63% | 98.6% | -12.4% |
| CAAAAACCACAGUUUCUUUUGC [hsa-miR-548d-3p] | -4.46% | 65.5% | -0.45% |
| CAAAAACCAUAGUUACUUUUGC [hsa-miR-548bb-3p] | 40.6% | 103% | -26% |
| CAAAAACCGCAAUUACUUUUGCA [hsa-miR-548h-3p] | -11% | 52% | -6.67% |
| CAAAAACCGCAAUUACUUUUGCA [hsa-miR-548z] | -14.9% | 36% | 0.602% |
| CAAAAACCGGCAAUUACUUUUG [hsa-miR-548ac] | 8.34% | 72.6% | -15.1% |
| CAAAAACUGCAAUUACUUUCA [hsa-miR-548ae] | 38.6% | 153% | -34.4% |
| CAAAAACUGCAAUUACUUUUGC [hsa-miR-548aq-3p] | 13.8% | 115% | -26.6% |
| CAAAAACUGCAGUUACUUUUGC [hsa-miR-548ah-3p] | 63.6% | 144% | -24.8% |
| CAAAAACUGCAGUUACUUUUGU [hsa-miR-548am-3p] | 42.5% | 96% | -23.3% |
| CAAAAACUGCAUUACUUUUGC [hsa-miR-548j-3p] | 32.5% | 118% | -29.2% |
| CAAAAAUCUCAAUUACUUUUGC [hsa-miR-548c-3p] | 42.3% | 84.4% | -9.26% |
| CAAAACCGCAGUAACUUUUGU [hsa-miR-548at-3p] | -23.4% | 33% | 37.5% |
| CAAAACCGCGAUUACUCUUGCA [hsa-miR-548ay-3p] | -63.9% | 25.8% | 52% |
| CAAAACGUGAGGCGCUGCUAU [hsa-miR-424-3p] | -16.6% | 74.1% | -5.82% |
| CAAAACUGGCAAUUACUUUUGC [hsa-miR-548a-3p] | 45.7% | 77.4% | -17.2% |
| CAAAAGCAAUCGCGGUUUUUGC [hsa-miR-548e-5p] | 44% | 60.8% | -2.62% |
| CAAAAGUAAUUGUGGAUUUUGU [hsa-miR-548n] | 52.2% | 137% | -23.6% |
| CAAAAGUGAUCGUGGUUUUUG [hsa-miR-548t-5p] | 9.99% | 51.5% | -10.3% |
| CAAAAGUGAUUGUGGUUUUUGC [hsa-miR-548az-5p] | 45.1% | 149% | -15.6% |
| CAAACCACACUGUGGUGUUAGA [hsa-miR-497-3p] | 4.48% | 49.6% | -11.5% |

| Sequence | 5+ nucleoli phenotype percent effect (MCF10A [1]) | percent viability (MCF10A [2]) | one-nucleolus phenotype percent effect (MCF10A [3]) |
| --- | --- | --- | --- |
| CAAACCCCUGUCUACCCGCAG [hsa-miR-6771-3p] | -19.1% | 40.5% | 15.7% |
| CAAAGAAUUCUCCUUUUGGGCU [hsa-miR-186-5p] | 42.9% | 59.3% | -14.6% |
| CAAAGACUGCAAUUACUUUUGCG [hsa-miR-548u] | 43.4% | 75.7% | -31.1% |
| CAAAGAGGAAGGUCCCAUUAC [hsa-miR-583] | -24.7% | 69.2% | 27.5% |
| CAAAGCGCUCCCCUUUAGAGGU [hsa-miR-518b] | -39.6% | 27.8% | 61.9% |
| CAAAGCGCUUCCCUUUGGAGC [hsa-miR-518d-3p] | -31.6% | 29.8% | 42.6% |
| CAAAGCGCUUCUCUUUAGAGUGU [hsa-miR-518c-3p] | -26.1% | 44.9% | 37.7% |
| CAAAGGCCACAUUCUCCUGUGCAC [hsa-miR-6768-3p] | -27.1% | 23.3% | 28% |
| CAAAGUCCUUCCUAUUUUUCCC [hsa-miR-6507-3p] | -15.5% | 104% | -3.22% |
| CAAAGUGAUGAGUAAUACUGGCUG [hsa-miR-3609] | 2.01% | 98.3% | -12.6% |
| CAAAGUGCCUCCCUUUAGAGUG [hsa-miR-519d] | 62.9% | 72.3% | -20.2% |
| CAAAGUGCUCAUAGUGCAGGUAG [hsa-miR-20b-5p] | 9.26% | 58.4% | -12% |
| CAAAGUGCUGUUCGUGCAGGUAG [hsa-miR-93-5p] | 59.5% | 64.1% | -18.1% |
| CAAAGUGCUUACAGUGCAGGUAG [hsa-miR-17-5p] | 27.3% | 71.5% | -20.9% |
| CAAAGUUUAAGAUCCUUGAAGU [hsa-miR-561-3p] | 23.4% | 182% | -26.2% |
| CAAAUAAUACCACAGUGGGUGU [hsa-miR-5692a] | 46.5% | 105% | -17.8% |
| CAAAUGAGCUUAAUUUCCUUUU [hsa-miR-1252-3p] | 37.8% | 160% | -15.1% |
| CAAAUGGACAGGAUAACACCU [hsa-miR-4694-3p] | -11.7% | 35.9% | 11.8% |
| CAAAUUCGUAUCUAGGGGAAUA [hsa-miR-10a-3p] | 38.1% | 84.8% | -15.8% |
| CAACAAAUCACAGUCUGCCAUA [hsa-miR-7-1-3p] | 23.6% | 98.9% | -2.83% |
| CAACAAAUCCCAGUCUACCUAA [hsa-miR-7-2-3p] | 4.35% | 104% | -10.8% |
| CAACACCAGUCGAUGGGCUGU [hsa-miR-21-3p] | -31.2% | 52.9% | 35.5% |
| CAACCACCACUGUCUCUCCCCAG [hsa-miR-6776-3p] | 48.4% | 91.3% | -24.4% |
